The results in this text go back to US20110082079A1 (Novo Nordisk, published 2011).

Numbering of substitutions follows the chain as printed. *1 amine or outer side, *2 acyl side, *3 side chain or, on linkers, in order; H or OH if unused. Where no end group is shown, it is not given here. Side-chain parts run from the residue outwards. [ ]: non-standard residue; d: D form. The star is where a group is joined. C20 diacid = O=C(O)CCCCCCCCCCCCCCCCCCC(=O)*; C18 diacid = O=C(O)CCCCCCCCCCCCCCCCC(=O)*; C16 diacid = O=C(O)CCCCCCCCCCCCCCC(=O)*; γGlu = O=C(O)[C@H](CCC(=O)[*:2])N[*:1]; Desaminohistidyl = O=C(CCc1c[nH]cn1)*; βAsp = O=C(O)[C@H](CC(=O)[*:2])N[*:1]; Palmitoyl = CCCCCCCCCCCCCCCC(=O)*; Trx = NC[C@H]1CC[C@H](C(=O)O)CC1; Dap = NC[C@H](N)C(=O)O; AEEA = NCCOCCOCC(=O)O; Aib = CC(C)(N)C(=O)O; Inp = O=C(O)C1CCNCC1

One assay has as its target human GLP-1 receptor (human, UniProt P43220 24-463). The assay is described as follows: cell-based or functional assay.
The target of assay [1] is isolated N-terminal extracellular domain of the GLP-1R receptor (nGLP-1R) (UniProt P43220). Description: SPA; displacement of 125I-Exendin-4(9-39) from biotinylated nGLP-1R. (Displacement assays read how much labelled ligand stays bound in the presence of the test substance.)
Chain of isolated N-terminal extracellular domain of the GLP-1R receptor (nGLP-1R) (P43220 24-145 limits assumed): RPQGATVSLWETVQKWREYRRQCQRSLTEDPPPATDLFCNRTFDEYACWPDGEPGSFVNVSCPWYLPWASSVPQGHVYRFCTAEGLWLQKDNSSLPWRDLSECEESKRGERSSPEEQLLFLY
Assay [2] has as its target T1, human serum albumin (HSA) (human, UniProt P02768 25-609, biotinylated).
T1 construct: also called biotinylated HSA
The assay is described as follows: competition SPA on biotinylated HSA beads; competitor 125I-labelled acylated GLP-1 analogue.

Chain of human GLP-1 receptor (P43220 24-463): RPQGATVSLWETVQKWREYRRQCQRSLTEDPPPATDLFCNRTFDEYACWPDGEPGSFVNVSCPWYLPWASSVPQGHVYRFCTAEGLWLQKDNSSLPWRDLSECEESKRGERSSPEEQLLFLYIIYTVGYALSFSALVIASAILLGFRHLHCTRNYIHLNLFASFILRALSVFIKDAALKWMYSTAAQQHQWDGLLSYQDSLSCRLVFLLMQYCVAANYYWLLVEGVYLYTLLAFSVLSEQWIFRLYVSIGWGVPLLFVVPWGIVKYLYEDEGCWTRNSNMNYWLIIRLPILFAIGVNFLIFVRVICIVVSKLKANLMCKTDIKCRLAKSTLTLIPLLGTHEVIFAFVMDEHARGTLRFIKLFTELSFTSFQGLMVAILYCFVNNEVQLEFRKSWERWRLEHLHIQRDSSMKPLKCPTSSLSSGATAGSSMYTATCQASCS

As a reminder, the IC50 is the concentration that inhibits the measured activity by half. Low readings indicate greater potency, high ones weaker potency. On to Liraglutide (peptide), for which the Potency [EC50/nM], cAMP formation with human GLP-1 receptor was 0.1 nM. For the same molecule, the IC50 in assay [1] came out at 1500 nM.

By EC50 is commonly meant the midpoint of the concentration-response curve. A higher EC50 goes with a less potent agent. On to “N-epsilon31{2-(2-{2-[2-(2-{2-[4-Carboxy-4-(17-carboxy-heptadecanoylamino)butyrylamino]ethoxy}ethoxy)acetylamino]ethoxy}ethoxy)acetyl}-[Aib8,Glu22,Val25,Arg26,Lys31,Arg34,Arg35,Arg37)]GLP-1(7-37)yl [Arg39,Arg40,Arg41] (peptide)”, for which, in the assay with human GLP-1 receptor, the Potency [EC50/nM], cAMP formation was found to be 0.74 nM. The same molecule yielded an EC50 in assay [2] of 800 nM.

For [Desaminohistidyl]AEGTFTSDVSSYLEEQAAREFIEWLVRGRK([AEEA-AEEA-γGlu-Trx-C20 diacid]), the “Potency [EC50/nM], cAMP formation” value with human GLP-1 receptor stood at 0.66 nM.

With [Desaminohistidyl]AEGTFTSDVSSYLEEQAAREFIEWLVRGRGEK([AEEA-AEEA-γGlu-C18 diacid]) [[desaminoHis7, Glu22, Arg26, Glu30, …], the “Potency [EC50/nM], cAMP formation” value with human GLP-1 receptor is 0.04 nM. Also, the EC50 in assay [2] lay in the range of 1500 to 2000 nM.

As for [Desaminohistidyl]AEGTFTSDVSSYLEEQAAREFIEWLVRGK([AEEA-AEEA-γGlu-C16 diacid])GEK, in the assay with human GLP-1 receptor, the “Potency [EC50/nM], cAMP formation” value is 0.21 nM. The molecule further registered a concentration giving a half-maximal response (EC50) in assay [2] greater than 2000 nM.

On to H[Aib]EGTFTSDVSSYLEEQAAREFIAWLVR[Aib]RK([AEEA-AEEA-γGlu-C18 diacid]), for which the “Potency [EC50/nM], cAMP formation” value with human GLP-1 receptor was determined as 0.06 nM. The same molecule came in with an EC50 in assay [2] of 100 to 150 nM.

B1: [Aib8,Glu22,Arg26,Glu30,Pro37]GLP-1-(7-37)Lys … (peptide)
peptide: H[Aib]EGTFTSDVSSYLEEQAAREFIEWLVKGRPK
modifications: not fully specified (residue 32); printed as [Aib8,Glu22,Arg26,Glu30,Pro37]GLP-1-(7-37)Lys [2-(2-{2-[4-Carboxy-4-(4-carboxy-4-{4-[4-(16-1H-tetrazol-5-yl-hexadecanoylsulfamoyl)butyrylamino]butyrylamino}butyrylamino)butyrylamino]ethoxy}ethoxy)acetyl]
As for B1, the “Potency [EC50/nM], cAMP formation” value with human GLP-1 receptor is 0.29 nM. In assay [2], this molecule registered an EC50 of 150 to 200 nM.

Consider H[Aib]EGTFTSDVSSYLEEQAAREFIEWLVKGK([AEEA-AEEA-C18 diacid])GE-NH2, for which the “Potency [EC50/nM], cAMP formation” value with human GLP-1 receptor is 0.22 nM. Moreover, the EC50 in assay [2] fell in the range of 200 to 400 nM.

B2: N-alpha37-[2-(2-{2-[2-(2-{2-[(S)-4-Carboxy-4-(17-carboxy-heptadecanoylamino)-butyrylamino]-ethoxy}-ethoxy)-acetylamino]-ethoxy}-ethoxy)-acetyl][Aib8,Glu22,Arg26 … (peptide)
peptide: HXEGTFTSDVSSYLEEQAAREFIAWLVRGRK
modifications: not fully specified; Aib at 8; Lys37 is bound to the peptide through its epsilon amino group (epsilon-Lys37) and acylated at N-alpha with the side chain given in the name
Take B2: the “Potency [EC50/nM], cAMP formation” value with human GLP-1 receptor is 0.08 nM. Moreover, in assay [2], the EC50 was 200 to 400 nM.

B3: N-epsilon37-[2-(2-[2-(2-[2-(2-((R)-3-[1-(17-Carboxyheptadecanoyl)piperidin-4-ylcarbonylamino]3-carboxypropionylamino)ethoxy)ethoxy]acetylamino)ethoxy]ethoxy)ace … (peptide)
peptide: B2 peptide with H1X, X2A, F22X
modifications: desamino-histidine at 7; m-CF3-phenylalanine at 28; residue 37 acylated at N-epsilon with the side chain given in the name; C-terminal amide
Turning to B3, the “Potency [EC50/nM], cAMP formation” value with human GLP-1 receptor was 0.35 nM. For the same molecule, in assay [2], the concentration giving a half-maximal response (EC50) fell in the range of 1500 to 2000 nM.

B4: N-epsilon31-{2-(2-{2-[2-(2-{2-[4-Carboxy-4-(17-carboxy-heptadecanoylamino)butyrylamino]ethoxy}ethoxy)acetylamino]ethoxy}ethoxy)acetyl}-N-beta34-(2-(bis-carboxym … (peptide)
peptide: H[Aib]EGTFTSDVSSYLEEQAVREFIAK([AEEA-AEEA-γGlu-C18 diacid])LV[Dap](2‑(bis-carboxymethylamino)acetyl)-NH2
notes: GLP-1(7-34) = residues 1-28 of the entry
On to B4, for which the “Potency [EC50/nM], cAMP formation” value with human GLP-1 receptor turned out to be 0.34 nM. The EC50 in assay [2] is 150 to 200 nM.

B5: N-epsilon37-{2-(2-(2-(2-[2-(2-(4-(hexadecanoylamino)-4-carboxybutyrylamino)ethoxy)ethoxy]acetyl)ethoxy)ethoxy)acetyl)}-[desaminoHis7,Glu22,Arg26, … (peptide)
peptide: [Desaminohistidyl]AEGTFTSDVSSYLEEQAAREFIEWLVRGRK([AEEA-AEEA-γGlu-Palmitoyl])-NH2
SMILES: CCCCCCCCCCCCCCCC(=O)N[C@@H](CCC(=O)NCCOCCOCC(=O)NCCOCCOCC(=O)NCCCC[C@H](NC(=O)[C@H](CCCNC(=N)N)NC(=O)CNC(=O)[C@H](CCCNC(=N)N)NC(=O)[C@@H](NC(=O)[C@H](CC(C)C)NC(=O)[C@H](Cc1c[nH]c2ccccc12)NC(=O)[C@H](CCC(=O)O)NC(=O)[C@@H](NC(=O)[C@H](Cc1ccccc1)NC(=O)[C@H](CCC(=O)O)NC(=O)[C@H](CCCNC(=N)N)NC(=O)[C@H](C)NC(=O)[C@H](C)NC(=O)[C@H](CCC(N)=O)NC(=O)[C@H](CCC(=O)O)NC(=O)[C@H](CCC(=O)O)NC(=O)[C@H](CC(C)C)NC(=O)[C@H](Cc1ccc(O)cc1)NC(=O)[C@H](CO)NC(=O)[C@H](CO)NC(=O)[C@@H](NC(=O)[C@H](CC(=O)O)NC(=O)[C@H](CO)NC(=O)[C@@H](NC(=O)[C@H](Cc1ccccc1)NC(=O)[C@@H](NC(=O)CNC(=O)[C@H](CCC(=O)O)NC(=O)[C@H](C)NC(=O)CCc1c[nH]cn1)[C@@H](C)O)[C@@H](C)O)C(C)C)[C@@H](C)CC)C(C)C)C(N)=O)C(=O)O
Regarding B5, the “Potency [EC50/nM], cAMP formation” value in the assay with human GLP-1 receptor amounted to 0.16 nM.

B6: N-epsilon31-[2-(2-{2-[2-(2-{2-[(S)-4-Carboxy-4-(17-carboxyheptadecanoylamino)butyrylamino]ethoxy}ethoxy)acetylamino]ethoxy}ethoxy)acetyl][Aib8,Glu22,Val25,Arg26 … (peptide)
peptide: H[Aib]EGTFTSDVSSYLEEQAVREFIAK([AEEA-AEEA-γGlu-C18 diacid])LVKKK-NH2
modifications: N-terminus assumed
SMILES: CC[C@H](C)[C@H](NC(=O)[C@H](Cc1ccccc1)NC(=O)[C@H](CCC(=O)O)NC(=O)[C@H](CCCNC(=N)N)NC(=O)[C@@H](NC(=O)[C@H](C)NC(=O)[C@H](CCC(N)=O)NC(=O)[C@H](CCC(=O)O)NC(=O)[C@H](CCC(=O)O)NC(=O)[C@H](CC(C)C)NC(=O)[C@H](Cc1ccc(O)cc1)NC(=O)[C@H](CO)NC(=O)[C@H](CO)NC(=O)[C@@H](NC(=O)[C@H](CC(=O)O)NC(=O)[C@H](CO)NC(=O)[C@@H](NC(=O)[C@H](Cc1ccccc1)NC(=O)[C@@H](NC(=O)CNC(=O)[C@H](CCC(=O)O)NC(=O)C(C)(C)NC(=O)[C@@H](N)Cc1c[nH]cn1)[C@@H](C)O)[C@@H](C)O)C(C)C)C(C)C)C(=O)N[C@@H](C)C(=O)N[C@@H](CCCCNC(=O)COCCOCCNC(=O)COCCOCCNC(=O)CC[C@H](NC(=O)CCCCCCCCCCCCCCCCC(=O)O)C(=O)O)C(=O)N[C@@H](CC(C)C)C(=O)N[C@H](C(=O)N[C@@H](CCCCN)C(=O)N[C@@H](CCCCN)C(=O)N[C@@H](CCCCN)C(N)=O)C(C)C
notes: GLP-1(7-36) = residues 1-30 of the entry
As to B6, in the assay with human GLP-1 receptor, the “Potency [EC50/nM], cAMP formation” value was 0.14 nM. In assay [2], the EC50 lay in the range of 400 to 800 nM.

On to H[Aib]EGTFTSDVSSYLEEQAAREFIAK([AEEA-AEEA-βAsp-Inp-C20 diacid])LVRGRG, for which the “Potency [EC50/nM], cAMP formation” value with human GLP-1 receptor is 0.18 nM. In addition, in assay [2], the concentration giving a half-maximal response (EC50) was 200 to 400 nM.

As for H[Aib]EGTFTSDVSSYLEEQAAREFIK([AEEA-AEEA-βAsp-Inp-C20 diacid])WLVKGRG, the “Potency [EC50/nM], cAMP formation” value in the assay with human GLP-1 receptor stood at 0.52 nM. The molecule also returned an EC50 in assay [2] of 200 to 400 nM.

Turning to H[Aib]EGTFTSDVSSYLEEQAVREFIAK([AEEA-AEEA-γGlu-C18 diacid])LVRRRR, the “Potency [EC50/nM], cAMP formation” value with human GLP-1 receptor came out at 1.27 nM. In assay [2], this molecule registered an EC50 greater than 2000 nM.
